Measurements as given in US20240209061A1, “FUSION PROTEINS AND USES THEREOF” (Pfizer Inc., priority 2020, published 2024).

Key:
[1] = test system: peripheral blood mononuclear cells (PBMC); assay: RESTORE cytokine release assay in absence of TCR stimulation; format: cell-based, human; design: IFNγ: unit not given beside the values
Procedure: The ability of variant CD80-Fc fusion proteins to promote cytokine release in the absence of TCR stimulation was assessed in the RESTORE (RESetting T cells to Original Reactivity) assay (Römer et al, Blood, 2011). Freshly isolated peripheral blood mononuclear cells (PBMC) from whole blood of several healthy donors were cultured for 48 hours at […] within RPMI1640 media supplemented with 10% autologous plasma, 10 mM HEPES, 1× GlutaMAX, 1× PenStrep, beta2-mercaptoethanol, NEAA and sodium pyruvate. Following the 48-hour incubation, PBMC were pelleted and resuspended at a final concentration of 10^6/ml with indicated soluble drug. Treatment was allowed for 48 hours then supernatant was harvested and assessed in IL-2 and IFNγ ELISA according to manufacturer's protocol (BioLegend).
Positive controls included CD28 superagonist anti-CD28 clone TGN1412 as IgG1 and IgG4 isotypes and anti-CD3. […] Values shown are the average of 3 technical replicates. D=Donor.

[2] = test system: CT26 murine colorectal carcinoma tumor cells; assay: CT26 murine colorectal carcinoma model; format: in vivo, mouse; settings: for Day 10 tumor volume: Days 0 and 3; for % tumor growth inhibition: Day 10
Procedure: CT26 murine colorectal carcinoma tumor cells (1×10^6) were subcutaneously implanted in the hind flank of female Balb/c mice. When tumors reached ˜100 mm3 (Day 8), mice were randomized. PBS vehicle control or variant CD80-Fc fusion proteins were dosed intravenously at 0.1 and 1.0 mg/kg on Days 0 and 3. Tumor volume was determined by caliper measurements obtained in 2 dimensions and calculated as width^2×length/2. Error bars are depicted as ±SEM.
IFNγ ELIspot was used to measure tumor-reactive T cells in the spleen in mice treated with CD80-Fc fusion proteins at a 1 mg/kg dose.
Cytotoxic CD8^+ T cells are responsible for killing cancer cells and the measurement of CD8^+ T cells that have infiltrated tumors commonly correlates with efficacy for immune-oncology therapies. For all in vivo studies, tumors were collected ˜1 week after the first dose and dissociated by mincing, followed by incubation in an enzymatic digestion cocktail and homogenization. The resulting cell suspension was filtered and washed, and single cells were stained with antibodies to CD45, CD8, and a viability dye to detect tumor-infiltrating lymphocytes (TILs) by flow cytometry. Data were acquired on a BD LSRFortessa flow cytometer or a Cytek Aurora spectral flow cytometer. Table 31 and FIG. 18 show the amount of tumor-infiltrating CD8+ T cells expressed as a percentage of total immune cells (CD45+). Each value is the average of n=4 mice per group. Treatment with all variant CD80-Fc fusion proteins led to increase in CD8+ TILs in various tumor models.

## CD80-K89D-D90K-T28V-T57V-Fc: non-cysteine stabilized variant CD80-Fc fusion protein (K89D, D90K, T28V, T57V)
[1]; Table 21, D132, 1.9 μg/ml
  IL-2: 0.0
[1]; Table 21, D132, 5.6 μg/ml
  IL-2: 0.3
[1]; Table 21, D132, 16.7 μg/ml
  IL-2: 0.7
[1]; Table 21, D132, 50 μg/ml
  IL-2: 3.7
[1]; Table 21, D149, 1.9 μg/ml
  IL-2: 0.0
[1]; Table 21, D149, 5.6 μg/ml
  IL-2: 0.0
[1]; Table 21, D149, 16.7 μg/ml
  IL-2: 3.7
[1]; Table 21, D149, 50 μg/ml
  IL-2: 0.3
[1]; Table 21, D379, 1.9 μg/ml
  IL-2: 2.3
[1]; Table 21, D379, 5.6 μg/ml
  IL-2: 0.0
[1]; Table 21, D379, 16.7 μg/ml
  IL-2: 0.0
[1]; Table 21, D379, 50 μg/ml
  IL-2: 0.0
[1]; Table 21, D399, 1.9 μg/ml
  IL-2: 0.0
[1]; Table 21, D399, 5.6 μg/ml
  IL-2: 0.0
[1]; Table 21, D399, 16.7 μg/ml
  IL-2: 0.0
[1]; Table 21, D399, 50 μg/ml
  IL-2: 0.0
[1]; Table 21, D417, 1.9 μg/ml
  IL-2: 0.0
[1]; Table 21, D417, 5.6 μg/ml
  IL-2: 0.0
[1]; Table 21, D417, 50 μg/ml
  IL-2: 0.0
[1]; Table 21, D518, 1.9 μg/ml
  IL-2: 1.3
[1]; Table 21, D518, 5.6 μg/ml
  IL-2: 0.3
[1]; Table 21, D518, 16.7 μg/ml
  IL-2: 0.0
[1]; Table 21, D518, 50 μg/ml
  IL-2: 3.0
[1]; Table 22, D132, 1.9 μg/ml
  IFNγ: 0.0
[1]; Table 22, D132, 5.6 μg/ml
  IFNγ: 0.0
[1]; Table 22, D132, 16.7 μg/ml
  IFNγ: 41.3
[1]; Table 22, D132, 50 μg/ml
  IFNγ: 0.0
[1]; Table 22, D149, 1.9 μg/ml
  IFNγ: 0.0
[1]; Table 22, D149, 5.6 μg/ml
  IFNγ: 0.0
[1]; Table 22, D149, 16.7 μg/ml
  IFNγ: 0.0
[1]; Table 22, D149, 50 μg/ml
  IFNγ: 12.3
[1]; Table 22, D379, 1.9 μg/ml
  IFNγ: 2.0
[1]; Table 22, D379, 5.6 μg/ml
  IFNγ: 0.0
[1]; Table 22, D379, 50 μg/ml
  IFNγ: 0.0
[1]; Table 22, D399, 1.9 μg/ml
  IFNγ: 0.0
[1]; Table 22, D399, 5.6 μg/ml
  IFNγ: 0.0
[1]; Table 22, D399, 16.7 μg/ml
  IFNγ: 0.0
[1]; Table 22, D399, 50 μg/ml
  IFNγ: 13.7
[1]; Table 22, D417, 1.9 μg/ml
  IFNγ: 0.0
[1]; Table 22, D417, 5.6 μg/ml
  IFNγ: 94.3
[1]; Table 22, D417, 16.7 μg/ml
  IFNγ: 0.0
[1]; Table 22, D417, 50 μg/ml
  IFNγ: 0.0
[1]; Table 22, D518, 1.9 μg/ml
  IFNγ: 0.0
[1]; Table 22, D518, 5.6 μg/ml
  IFNγ: 0.0
[1]; Table 22, D518, 16.7 μg/ml
  IFNγ: 0.0
[1]; Table 22, D518, 50 μg/ml
  IFNγ: 0.0

## CD80-D90Q-Fc: variant CD80 ECD (D90Q) fused to human IgG1 Fc
[2]; 0.1 mg/kg
  Number of tumor regressions: 0/10
  % tumor growth inhibition: 39.20%
[2]; 0.1 mg/kg IV
  Day 10 tumor volume: 728.3 mm^3
[2]; 1 mg/kg
  Number of tumor regressions: 6/10
  % tumor growth inhibition: 75.31%
[2]; 1 mg/kg IV
  Day 10 tumor volume: 295.8 mm^3
[2]; 1 mg/kg, average of n = 4 mice
  # IFNγ-producing spots (tumor-reactive T cells in spleen): 341.6875
[2]; CT26, 1 mg/kg, n=4
  CD8^+ T cell infiltrates (% CD45): 27.4 % CD45
[1]; Table 20, D222, 1 μg/ml
  IFNγ: 3.3
[1]; Table 20, D222, 10 μg/ml
  IFNγ: 4.0
  IL-2: 9.0
[1]; Table 20, D281, 1 μg/ml
  IFNγ: 3.3
  IL-2: 2.3
[1]; Table 20, D281, 10 μg/ml
  IFNγ: 3.3
  IL-2: 2.3
[1]; Table 20, D462, 1 μg/ml
  IFNγ: 8.3
  IL-2: 1.7
[1]; Table 20, D462, 10 μg/ml
  IFNγ: 10.3
  IL-2: 1.7
[1]; Table 20, D547, 1 μg/ml
  IFNγ: 3.3
  IL-2: 9.0
[1]; Table 20, D547, 10 μg/ml
  IFNγ: 7.7
  IL-2: 3.3
